Target: Flap endonuclease 1 (FEN1) (human (endogenous in RA3087 cells), UniProt P39748-1 1-380)
Assay: cell-based or functional assay

Flap endonuclease 1 (FEN1), sequence (P39748 whole entry): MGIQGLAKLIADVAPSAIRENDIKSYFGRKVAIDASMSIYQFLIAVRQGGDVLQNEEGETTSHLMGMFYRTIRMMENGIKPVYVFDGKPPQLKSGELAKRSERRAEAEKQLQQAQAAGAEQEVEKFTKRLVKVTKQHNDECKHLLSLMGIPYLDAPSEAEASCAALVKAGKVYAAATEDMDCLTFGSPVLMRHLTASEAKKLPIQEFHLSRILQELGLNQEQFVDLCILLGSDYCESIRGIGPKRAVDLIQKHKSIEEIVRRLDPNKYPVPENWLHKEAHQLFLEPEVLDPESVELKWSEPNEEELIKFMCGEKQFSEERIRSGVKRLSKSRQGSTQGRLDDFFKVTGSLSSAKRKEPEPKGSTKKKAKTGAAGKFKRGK

stimulation of FEN1 5' flap endonuclease activity on the 15-nt DNA flap (2 nM substrate, 0.2 nM purified FEN1) by purified His6-FANCA at 2.5, 5, 10 nM; fold over FEN1 alone: 4.5 fold
stimulation of FEN1 5' flap endonuclease activity on the 15-nt RNA flap (2 nM substrate, 0.1 nM purified FEN1) by purified His6-FANCA at 2.5, 5, 10 nM; fold over FEN1 alone: 8 fold
B1: FLAG-FANCA (human Fanconi anemia complementation group A protein) (natural protein, UniProt O15360-1 1-1455, looked up)
chain: MSDSWVPNSASGQDPGGRRRAWAELLAGRVKREKYNPERAQKLKESAVRLLRSHQDLNALLLEVEGPLCKKLSLSKVIDCDSSEAYANHSSSFIGSALQDQASRLGVPVGILSAGMVASSVGQICTAPAETSHPVLLTVEQRKKLSSLLEFAQYLLAHSMFSRLSFCQELWKIQSSLLLEAVWHLHVQGIVSLQELLESHPDMHAVGSWLFRNLCCLCEQMEASCQHADVARAMLSDFVQMFVLRGFQKNSDLRRTVEPEKMPQVTVDVLQRMLIFALDALAAGVQEESSTHKIVRCWFGVFSGHTLGSVISTDPLKRFFSHTLTQILTHSPVLKASDAVQMQREWSFARTHPLLTSLYRRLFVMLSAEELVGHLQEVLETQEVHWQRVLSFVSALVVCFPEAQQLLEDWVARLMAQAFESCQLDSMVTAFLVVRQAALEGPSAFLSYADWFKASFGSTRGYHGCSKKALVFLFTFLSELVPFESPRYLQVHILHPPLVPGKYRSLLTDYISLAKTRLADLKVSIENMGLYEDLSSAGDITEPHSQALQDVEKAIMVFEHTGNIPVTVMEASIFRRPYYVSHFLPALLTPRVLPKVPDSRVAFIESLKRADKIPPSLYSTYCQACSAAEEKPEDAALGVRAEPNSAEEPLGQLTAALGELRASMTDPSQRDVISAQVAVISERLRAVLGHNEDDSSVEISKIQLSINTPRLEPREHMAVDLLLTSFCQNLMAASSVAPPERQGPWAALFVRTMCGRVLPAVLTRLCQLLRHQGPSLSAPHVLGLAALAVHLGESRSALPEVDVGPPAPGAGLPVPALFDSLLTCRTRDSLFFCLKFCTAAISYSLCKFSSQSRDTLCSCLSPGLIKKFQFLMFRLFSEARQPLSEEDVASLSWRPLHLPSADWQRAALSLWTHRTFREVLKEEDVHLTYQDWLHLELEIQPEADALSDTERQDFHQWAIHEHFLPESSASGGCDGDLQAACTILVNALMDFHQSSRSYDHSENSDLVFGGRTGNEDIISRLQEMVADLELQQDLIVPLGHTPSQEHFLFEIFRRRLQALTSGWSVAASLQRQRELLMYKRILLRLPSSVLCGSSFQAEQPITARCEQFFHLVNSEMRNFCSHGGALTQDITAHFFRGLLNACLRSRDPSLMVDFILAKCQTKCPLILTSALVWWPSLEPVLLCRWRRHCQSPLPRELQKLQEGRQFASDFLSPEAASPAPNPDWLSAAALHFAIQQVREENIRKQLKKLDCEREELLVFLFFFSLMGLLSSHLTSNSTTDLPKAFHVCAAILECLEKRKISWLALFQLTESDLRLGRLLLRVAPDQHTRLLPFAFYSLLSYFHEDAAIREEAFLHVAVDMYLKLVQLFVAGDTSTVSPPAGRSLELKGQGNPVELITKARLFLLQLIPRCPKKSFSHVAELLADRGDCDPEVSAALQSRQQAAPDADLSQEPHLF

Source: publication PMC3857783, “Human Fanconi Anemia Complementation Group A Protein Stimulates the 5’ Flap Endonuclease Activity of FEN1” (PLoS ONE, 2013)
